Literature values as cited in patent US20240269237A1, “PHARMACEUTICAL COMPOSITION AND KIT COMPRISING AN IMMUNOMODULATORY SUBSTANCE FOR TREATING DISEASES” (ellennbe GmbH, priority 2021, published 2024).

System: ankylosing spondylitis (Bechterew's disease)
Details: Patient 11, history; within half a year the biologics lost their effect

B1: certolizumab pegol (antibody, chains of the INN, looked up, V domains shown)
VH: EVQLVESGGGLVQPGGSLRLSCAASGYVFTDYGMNWVRQAPGKGLEWMGWINTYIGEPIYADSVKGRFTFSLDTSKSTAYLQMNSLRAEDTAVYYCARGYRSYAMDYWGQGTLVTVSS
VL: DIQMTQSPSSLSASVGDRVTITCKASQNVGTNVAWYQQKPGKAPKALIYSASFLYSGVPYRFSGSGSGTDFTLTISSLQPEDFATYYCQQYNIYPLTFGQGTKVEIK
  effect of earlier treatment with biologics: little effect from the outset
